Measurements from publication doi:10.1101/2022.04.02.486817.

How the values were obtained:
GST-TGN38 = GST-TGN38 (UniProt P19814); test: BLI
AP2 α-appendage = AP2 α-appendage (UniProt P17427); test: ITC
Cμ2 = Cμ2 (UniProt P84092); test: ITC
Cμ2, sequence (P84092 158-435): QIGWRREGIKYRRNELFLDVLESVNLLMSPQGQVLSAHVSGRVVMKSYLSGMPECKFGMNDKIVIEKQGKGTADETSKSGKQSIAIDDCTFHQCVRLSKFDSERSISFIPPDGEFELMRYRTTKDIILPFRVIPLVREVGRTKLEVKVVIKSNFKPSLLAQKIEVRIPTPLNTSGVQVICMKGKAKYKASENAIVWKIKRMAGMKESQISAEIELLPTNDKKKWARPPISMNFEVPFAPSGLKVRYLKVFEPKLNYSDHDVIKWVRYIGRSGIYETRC

AP2 α-appendage, sequence (P17427 702-938): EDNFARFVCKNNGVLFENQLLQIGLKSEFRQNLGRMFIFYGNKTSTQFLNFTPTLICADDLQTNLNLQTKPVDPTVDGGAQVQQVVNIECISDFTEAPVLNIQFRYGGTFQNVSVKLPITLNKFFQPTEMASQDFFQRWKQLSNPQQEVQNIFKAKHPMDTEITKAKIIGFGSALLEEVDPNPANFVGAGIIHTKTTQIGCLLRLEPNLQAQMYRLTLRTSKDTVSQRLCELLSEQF
AP2:β2FCHO2-N3+C, sequence (P62743 whole entry, looked up, tested part not stated): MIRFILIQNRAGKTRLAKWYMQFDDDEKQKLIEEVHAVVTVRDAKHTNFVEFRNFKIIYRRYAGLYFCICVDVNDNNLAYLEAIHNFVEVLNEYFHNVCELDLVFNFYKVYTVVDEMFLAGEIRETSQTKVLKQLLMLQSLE
AP2:β2FCHO2-N3+C, sequence (P84092 whole entry, looked up, tested part not stated): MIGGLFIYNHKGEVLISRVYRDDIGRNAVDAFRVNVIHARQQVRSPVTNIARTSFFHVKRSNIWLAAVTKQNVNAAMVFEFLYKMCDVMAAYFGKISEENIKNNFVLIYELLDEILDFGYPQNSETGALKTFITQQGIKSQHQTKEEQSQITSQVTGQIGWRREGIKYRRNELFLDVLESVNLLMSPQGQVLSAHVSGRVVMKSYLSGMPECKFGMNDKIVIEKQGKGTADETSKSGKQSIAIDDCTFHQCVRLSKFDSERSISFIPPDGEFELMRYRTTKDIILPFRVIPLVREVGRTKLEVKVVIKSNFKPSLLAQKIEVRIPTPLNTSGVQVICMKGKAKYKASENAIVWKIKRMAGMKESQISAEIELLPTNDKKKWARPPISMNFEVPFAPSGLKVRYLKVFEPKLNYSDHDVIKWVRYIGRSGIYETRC
AP2:β2FCHO2-N3+C, sequence (P18484 whole entry, looked up, tested part not stated): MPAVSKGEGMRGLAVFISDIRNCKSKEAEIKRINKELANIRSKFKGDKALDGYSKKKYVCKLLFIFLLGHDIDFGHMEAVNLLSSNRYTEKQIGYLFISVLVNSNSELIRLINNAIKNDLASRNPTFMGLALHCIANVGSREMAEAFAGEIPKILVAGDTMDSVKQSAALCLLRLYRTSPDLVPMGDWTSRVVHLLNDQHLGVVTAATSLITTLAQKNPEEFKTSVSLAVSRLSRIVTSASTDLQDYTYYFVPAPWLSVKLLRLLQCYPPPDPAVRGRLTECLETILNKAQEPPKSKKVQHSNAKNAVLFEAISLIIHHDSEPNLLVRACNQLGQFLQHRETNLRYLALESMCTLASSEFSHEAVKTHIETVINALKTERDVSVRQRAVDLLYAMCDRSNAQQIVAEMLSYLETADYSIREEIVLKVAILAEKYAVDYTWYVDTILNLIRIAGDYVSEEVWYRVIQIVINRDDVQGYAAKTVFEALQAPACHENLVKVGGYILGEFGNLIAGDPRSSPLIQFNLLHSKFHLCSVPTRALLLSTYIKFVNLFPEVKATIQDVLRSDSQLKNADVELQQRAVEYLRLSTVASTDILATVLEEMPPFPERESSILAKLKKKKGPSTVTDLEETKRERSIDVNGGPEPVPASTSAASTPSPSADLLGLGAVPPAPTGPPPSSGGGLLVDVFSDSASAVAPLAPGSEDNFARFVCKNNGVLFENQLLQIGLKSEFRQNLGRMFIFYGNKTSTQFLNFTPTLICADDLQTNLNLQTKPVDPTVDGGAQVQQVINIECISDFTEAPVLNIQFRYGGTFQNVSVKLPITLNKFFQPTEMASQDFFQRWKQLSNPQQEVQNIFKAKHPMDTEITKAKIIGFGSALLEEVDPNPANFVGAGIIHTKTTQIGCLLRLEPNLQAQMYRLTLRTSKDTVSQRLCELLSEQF
GST-TGN38, sequence (P19814 325-357): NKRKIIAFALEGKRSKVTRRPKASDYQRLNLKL

Substance | Kd (AP2 α-appendage) | also measured
AP2:β2FCHO2-N3+C (from UniProt P18484 1-938; P84092 1-435; P62743 1-142) (complex) |  | fold tighter binding than AP2 core (GST-TGN38): 3 fold
FCHO1 C block LEStoAAA (from UniProt O14526 427-448) (peptide) | > 500 µM | 
FCHO2 N1+N2 E320A+E321A+K326A (domain or fragment) |  | fold reduction of binding against the wild type (Cμ2): 5 fold

Second part, led by results:

Kd (AP2 α-appendage) | Substance | also measured
> 500 µM | FCHO1 C block FGtoAA (from UniProt O14526 427-448) (peptide) | 
> 500 µM | FCHO1 C block PPtoGG (from UniProt O14526 427-448) (peptide) | 
